Experiment: soluble on expression in E. coli; label from the status in PepcDB or PDB records
For “MDGHHVDARPVEPVQGERDGRAGGSGMSLIKSVRHWLRRHPTVATEPATPPARGAHRGQVDHVILFDGTCSSLEAGHETNVGLIFKLLREERRSVQRTIYYEPGLQWGGWLRIGDLVQGKGLNRQIRRAYGYLASHYQPGDRIFLFGYSRGAYAARSLAGVIDRVGLLRREEATERNVRLAWRHYEQGSIRPHARAFSRRHCHARVEIEMVGIFDTVKALGLRLPLLWRLSEDRHAFHSHKLGRTVRHGFHALALDETRTVFEPVLWDYPYHGQIVEQAWFRGGHGDIGGQLAGGRHGSRLLSNIPLVWMLERATHCGLQLPEGWRARHPCDVTAPMTSMYAGWGKIFLSRQRRPTLRCPTEYIHPTALRPEPRRRKWRLRWGGAPEGEPTQGLEHHHHHH”, the “soluble on expression in E. coli” value was “not soluble”.
In the case of “MDGNAPEPRYWEKMRLVAEVLKAVEGPIYIATHVDPDGDAIGSSLGLYRALKALGKEAYWVADPPRFLRFLPKEEEYSDPVEKLPPGATLVALDSAEPSRVVGVPVEGFVINIDHHGTNPRFGHLHVVDPSKAATAQMVKDLIDLLGVEWTAEIATPVLTGILTDTGNFRFANTTPEVLRVAAELLGYGVKLAELTDRLQFRPPSYFRLMGQVLSTVAFHFGGLLVTAHLPEEAGAEEDSDDFVGLIRYVEGSVVSVFLRKREEGVKVSIRSRGGVSAQNIALKLGGGGHVPAAGATLKGLDLDQAYERVLEAVREELTRAGYLLEHHHHHH”, the “soluble on expression in E. coli” value is reported as “not soluble”.
For “MDGSQGSTDYGDHVVLRYGGTREMVPLIRHEQMLDMLMERARQIVQGFGNLDTRNMYLFRHEYNSPTLLYPITSASQITSGSILEIILVDRTEAAVIPHVVEPESYMRPTFCDFCGEMLTGLMRQGVKCKNCNGNFHKRCSNAARNNCGAPGAPGAQPSRPPILPPIPTTPTGFPVAALSTPTGLPHTLIEHSYRQFTVCKVCDHLLVGLVKQGLKCRDCGVNVHRKCAMELASNCVLSENAISRVNFTDPEGPGSSSSDNIPLFRLPGQVGTRATEKKKLEGWMMHFILSDPERRLKHYWMMQSNAIHLYNEYSEGIGVNPNRVYRIIPLAEITSVVQNNGKSVLAKHPPHCFEIRTTTNTVFCVGEDYHAFSGGPPKKIPRSMSVRPSSNTTMWFQFIKESLQPPSRNEDNAEQALEFANLYQVLSDKTLGSGQFGTVYSAIQRHSGKEVAVKVISKERFSKKGSGAESMRAEVAILQQTCHPGIVCLEFMCETKDKIFVVMEKMNGDMLEMILSQELGRLNSRATKFLLVQILCALKYLHDQGIAHCDLKPENVLLSDMGSNFPQTKICDFGYARFIPESQFRKTVVGTPAYLPPEVLQRKGYNKSLDMWSVGVIIYVTLSGTFPFNEGEEISEQIQNASFMFPTEPWSEVEPLAVDLIQKLLKVEIEARMSIEQCLDHGWLKGEQLYRDLRDLEVRLNTPRYLTSPQDDILYGTLVNP”, the “soluble on expression in E. coli” value was “not soluble”.
In the case of “MDGTRTSLDIEEYSDTEVQKNQVLTLEEWQDKWVNGKTAFHQEQGHQLLKKHLDTFLKGKSGLRVFFPLCGKAVEMKWFADRGHSVVGVEISELGIQEFFTEQNLSYSEEPITEIPGTKVFKSSSGNISLYCCSIFDLPRTNIGKFDMIWDRGALVAINPGDRKCYADTMFSLLGKKFQYLLCVLSYDPTKHPGPPFYVPHAEIERLFGKICNIRRLEKVDAFEERHKSWGIDCLFEKLYLLTEK”, the “soluble on expression in E. coli” value is reported as “not soluble”.
For “MDIAQDWNGIPVPANPGNGMTWQLQDNVSDSFNYTSSEGNRPTAFTSKWKPSYINGWTGPGSTIFNAPQAWTNGSQLAIQAQPAGNGKSYNGIITSKNKIQYPVYMEIKAKIMDQVLANAFWTLTDDETQEIDIMEGYGSDRGGTWFAQRMHLSHHTFIRNPFTDYQPMGDATWYYNGGTPWRSAYHRYGCYWKDPFTLEYYIDGVKVRTVTRAEIDPNNHLGGTGLNQATNIIIDCENQTDWRPAATQEELADDSKNIFWVDWIRVYKPVAVSGGGNNSLEHHHHHH”, the “soluble on expression in E. coli” value was “soluble”.
In the case of “MDIVISGGTGLIGRAITEIQGNTYNVITRGPSRTDGNINLVNWNDLRKIRHCDVVINLAGYNIGSKRWNPKIKEEIIRSRIESTRRMVEFISSLDSKPEAFLSGSAIGYYGYGENTVFDENSPPGTGFLAELANAWEDEALKASRYTRTVILRTSNVLSSSGGFLARIMNSRSRRVYYFGDGDQPVSWIHIKDYVNAVKFLMENKDISGPVNMAAPSPVSFADLAHAIAREKGYKEMKIPEFIGKLILGSEMYRELMSGQRVAPKKLTGSGFSFQYPDLESAIKNLLEHHHHHH”, the “soluble on expression in E. coli” value is reported as “not soluble”.
In the case of “MDKIHAMQLFIRVADLESFSRAAETLALPKGSVSRQIQALESHLGVRLLHRTTRRVQLTQDGMVYYERAKDLLSNLDELDGMFQHDPASISGRLRVDMPVGFAKKMVIPHLPTFLQQYPGIELELSSSDRQVDVIREGFDCVVRVGALKDSGLIARPLGKLTQINCASPDYLARFGYPQSLEDLADHALIHYASTLGVRPPGFEVMIDGAVRWVKTGGILTVNSTETYQAACIAGLGIIQVPRTGVREALRAGDLIEILPQYRAEPLPVSLIYPHRRNLSRRVNLFMEWLGGLMKAYVD”, the “soluble on expression in E. coli” value is reported as “not soluble”.
For “MDKSLLLELPILLCCFRALSGSLSMRNDAVNEIVAVKNNFPVIEIVQCRMCHLQFPGEKCSRGRGICTATTEEACMVGRMFKRDGNPWLTFMGCLKNCADVKGIRWSVYLVNFRCCRSHDLCNEDL”, the “soluble on expression in E. coli” value was “not soluble”.
In the case of “MDLICMYVFKGEESFGESIDVYGDYLIVKVGTEFLAVPKKSIKSVEDGRIVIGEFDEEEARELGRKWLEEKSKPVTLEELKSYGFGEEGE”, the “soluble on expression in E. coli” value is reported as “not soluble”.
For “MDLIPARIGLIYNPLGGWFRKHTARMQSLLATLPEIRQIQATDQIEFERAVTVVVEAKIGWLIVVGGDGTLQGVMSCLFECLPPDRWPEITIVPAGTTNMTALDLGMNGQAEQILSRIRQHLQRPGDMKQVRRP”, the “soluble on expression in E. coli” value was “not soluble”.
In the case of “MDLPVMPPVKPMLAKSVAKIPPDMQYEAKWDGFRAIVFRDGTEVELGSRTGKPLTRYFPELVEALRDRLPERCVIDGEIVIARDGRLDFDALTERIHPAESRVRMLAEKTPASFVAFDLLALADDSLLDTPLTERRALLESALSGVTAPVHVAPATTDREVAEQWFEQYEGAGLDGVIAKPLTLRYRQDERAMFKVKHERTADVVVAGYRLHKSGPVVGSLLLGLYDDRGALQHVGVSAAFPMKRRAELVEELEPLRMEDAAGHPWAAWSNEAAHETARLPGAPSRWSGKKDLSWVPLRPERVAEVAYDHMENGARFRHTARFRRWRPDRTPESCTYAQLEEPVSYDLTEILGSRGLEHHHHHH”, the “soluble on expression in E. coli” value is reported as “soluble”.
For “MDLQIIQNKIFEVRGCRVMLDFHLAELYQVETRALKQAVKRNLSRFPSDFAFQLTKDEWQGLITNCDKFPENIRHTPTPPLAFLEQGVAMLSSVLRSQTAIDVNISIMRAFVLMRQMSIGYEELLKRIEELEQSTDAQFSEVYQALTQLLSKPDPKPRKPIGYRTYDE”, the “soluble on expression in E. coli” value was “not soluble”.
With “MDLSALREDFPLFAQRPELVYLDSAATSQKPRRVIEALRRYYETLNANVHRGAYRLSAEATEAYEEARRRLARFLNAEPKEIVFVRNTTEAMNLVAYAWGLRNLKEGDEVLVTEMEHHAGLVPWHLVAGLTGAKVKAIPLTEEGRLDLSALEDLLTERTRVVSLVHMSNVLGTINPVAEIARRAKEAGALVVVDGAQSAPHLPVDVKALGADFFALSGHKMLGPTGAGVLWGRYEVLEGMMPFLGGGEMILEVHVDRSTYAPPPQRFEAGTPPIAEAIALGEAACYLMEVGMEKVFAHDRALLDYALKRLEEVPRLRVYGPKGLDRGGVIPFTLGRLHAHDLATFLDQEGIAVRAGHHCAQPLHRKLGLAATARASFYLYNTKEEVDRFVEALLRIEAKYRAWL” the “soluble on expression in E. coli” value was “soluble”.
With “MDLVKVDDDVVREMEIRRQQHSKKYDRKFEELVKSMSEAHVEPEKMKIPFSRKPTEQETNNLREEWEKEYAALCTSGRTLARPNPNSSIFSKILAQGSPSSAKAGTTRSTPRTSKPPSADENIIFGQKLPETPAPKLLCPPRASPGSSRRLSIFVENLPENHAEIVRGTIFAGREAKIMQNDPENVPSTSTYGEPIRPYLLFARYISLEKGLLDDKNRYKSATDPRFREFLKENIKYKVKQSIKHRTSSEACAQILNYFKTLLQKQEVQVLGGYAPVLQLKTNKDIEYASLCIVHNYVILAERDESLIPLISSHITRLSVFYGYIEQVFCIILLSRSALLRQHPEECMVKFLATSMNPSSPDAIKKWSRQKAHIILFCSVFTKNAYCFSKGFKLKLTDEILWKYVDASTAHILEIPRGSFILWQLITTCKPRLQVDKERWIQLLLNIKFKIIPELDLDSFDGDEAMLMQLKQTIDELLHP” the “soluble on expression in E. coli” value was “not soluble”.
